The target of this experiment is Plasmid-expressed Nme2Cas9 (human-codon-optimized, with NLSs and 3xHA tag), expressed in HEK293T cells (Neisseria meningitidis strain Del1444). As to the kind of experiment: cell-based or functional assay. As to conditions: scale: mass ratio of Acr plasmid to Nme2Cas9 plasmid.

The results in this text go back to patent US20220290113A1.

For the substance AcrIIC1Nme, the dose dependence of Acr inhibition of Nme2Cas9 genome editing: mass ratio of cotransfected Acr and Nme2Cas9 plasmids giving full inhibition was 2.

For the substance AcrIIC4Hpa, the dose dependence of Acr inhibition of Nme2Cas9 genome editing: mass ratio of cotransfected Acr and Nme2Cas9 plasmids giving full inhibition turned out to be 1.
